Data on one molecule can be found in patent US20160060354A1 (published 2016).

The target in the assay is Her (trivalent GalNAc glycan-conjugated). Nature of the assay: SPR.

B1: ASGPR subunit H1 (receptor)
chain: QNSQLQEELRGLRETFSNFTASTEAQVKGLSTQGGNVGRKMKSLESQLEKQQKDLSEDHSSLLLHVKQFVSDLRSLSCQMAALQGNGSERTCCPVNWVEHERSCYWFSRSGKAWADADNYCRLEDAHLVVVTSWEEQKFVQHHIGPVNTWMGLHDQNGPWKWVDGTDYETGFKNWRPEQPDDWYGHGLGGGEDCAHFTDDGRWNDDVCQRPYRWVCETELDKASQEPPLL
In turn, B1 had a koff of 1.83e-08 s⁻¹.
